Legend:
[1] = target: T1, rhSmad1 MH1 (Homo sapiens, UniProt Q15797 1-143); assay: EMSA
[2] = target: T1, rhSmad1 MH1; assay: competition
[3] = target: T1, rhSmad1 MH1; assay: competition; remark: listed apart in the source

T1 sequence (Q15797 1-143): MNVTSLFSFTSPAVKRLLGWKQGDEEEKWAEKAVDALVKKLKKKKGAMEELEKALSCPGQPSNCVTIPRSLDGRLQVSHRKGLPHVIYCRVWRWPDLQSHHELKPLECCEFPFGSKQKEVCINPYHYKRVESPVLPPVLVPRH

B1: GC-SBE WT (dsDNA)
DNA 1: ACAGCTCTGGAGCCAGATGGCCTGG
DNA 2: CCAGGCCATCTGGCTCCAGAGCTGT
B1: binds [1].

B2: GC-SBE Cmut (GGCGCC) (dsDNA)
DNA 1: ACAGCTCTGGCGCCAGATGGCCTGG
DNA 2: CCAGGCCATCTGGCGCCAGAGCTGT
B2: binds [2].

B3: GC-SBE mut (dsDNA)
DNA 1: ACAGCTCTAGATCCAGATGGCCTGG
DNA 2: CCAGGCCATCTGGATCTAGAGCTGT
B3: no binding [3].
